Data on 8 molecules can be found in US20240067728A1 (BIO THERA SOLUTIONS, published 2024).

Where two headings read alike, the source gives them in different places.

In test [1] the target is T1, CD47-His antigen (human, UniProt Q08722 19-139).
T1 construct: Human CD47 ECD with C-terminal 8xHIS tag, expressed in HEK293F; also called hCD47-His; human CD47-His
Description: SPR (Biacore), method of Example 5; cell carries an unexplained mark ^. A general note: Surface plasmon resonance follows binding to a sensor surface in real time, without labels.

Test [2] has as its target T2, human PD-L1 on PD-L1-CHO cells (human, UniProt Q9NZQ7 19-290).
T2 construct: whole, on cells; also called CHO cells overexpressing human PD-L1; PD-L1 expressed on the cell surface
Description: FACS on PD-L1-CHO cells, PE-labeled anti-human Fc secondary antibody; MFI(Mean) against Con(nM).

The target of test [3] is T1, CD47-His antigen. Kind of test: SPR (Biacore), method of Example 5, Two State Reaction fit.
Test [4] has as its target T1, CD47-His antigen. Description: SPR (Biacore), method of Example 5, 1:1 Binding fit.
The target in test [5] is T3, PD-L1-His antigen (human, UniProt Q9NZQ7 19-238).
T3 construct: Human PD-L1 ECD with C-terminal 8xHIS tag, expressed in HEK293F; also called hPDL1-His; human PD-L1-His
T3 sequence (Q9NZQ7 other isoform, or with tags, fused parts or gaps limits assumed): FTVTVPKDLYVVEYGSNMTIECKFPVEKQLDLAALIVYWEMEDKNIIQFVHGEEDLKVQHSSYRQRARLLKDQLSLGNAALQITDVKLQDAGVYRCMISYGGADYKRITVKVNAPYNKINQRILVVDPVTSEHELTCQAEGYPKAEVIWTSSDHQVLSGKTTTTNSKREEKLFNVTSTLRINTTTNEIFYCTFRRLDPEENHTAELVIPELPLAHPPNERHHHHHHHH
The description is as above.

In test [6] the target is T4, PD-L1 on CHO-PD-L1 cells (Promega PD-1/PD-L1 Blockade Bioassay) (UniProt Q9NZQ7 19-290, limits assumed). Description: cell-based or functional assay.
T4 sequence (Q9NZQ7 19-290 limits assumed): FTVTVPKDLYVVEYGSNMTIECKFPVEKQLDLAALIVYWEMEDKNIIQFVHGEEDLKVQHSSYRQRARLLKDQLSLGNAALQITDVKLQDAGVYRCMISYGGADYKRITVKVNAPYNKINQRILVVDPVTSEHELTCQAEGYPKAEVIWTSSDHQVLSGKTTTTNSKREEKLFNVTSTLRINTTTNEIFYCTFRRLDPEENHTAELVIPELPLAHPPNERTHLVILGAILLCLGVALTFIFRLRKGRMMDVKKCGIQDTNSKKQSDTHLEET
Test [7] addresses T4, PD-L1 on CHO-PD-L1 cells (Promega …). Description: cell-based or functional assay. This is another data set of the same source.
Test [8] has as its target T2, human PD-L1 on PD-L1-CHO cells. Description: FACS on PD-L1-CHO cells, PE-labeled anti-human Fc secondary antibody; MFI(Mean) against Con(nM). This is another data set of the same source.
The target in test [9] is T5, human CD47 on CD47-CHO cells (human, UniProt Q08722 19-323).
T5 construct: whole, on cells; also called CHO cells overexpressing human CD47; CD47 expressed on the cell surface
Description: FACS on CD47-CHO cells, PE-labeled anti-human Fc secondary antibody; MFI(Mean) against Con(nM).

The target of test [10] is T4, PD-L1 on CHO-PD-L1 cells (Promega …). Kind of test: cell-based or functional assay. The source holds these as a separate data set.
Test [11] addresses T3, PD-L1-His antigen. Description: SPR (Biacore T200), PD-L1-His immobilised on chip, antibody as mobile phase, 1:1 Binding fit.
Test [12] concerns the target T1, CD47-His antigen. Description: SPR (Biacore), method of Example 5, 1:1 Binding fit. This is another data set of the same source.
Test [13] has as its target T5, human CD47 on CD47-CHO cells. Description: FACS on CD47-CHO cells, PE-labeled anti-human Fc secondary antibody; MFI(Mean) against Con(nM). The source holds these as a separate data set.
The target of test [14] is T6, CD47 on human red blood cells (human, UniProt Q08722 19-323).
T6 construct: whole, on cells; also called RBC
Kind of test: FACS on human red blood cells, PE-labeled anti-human Fc secondary antibody; MFI(Mean) against Con(nM).

Test [15] addresses T7, CD47 on human T lymphocyte leukemia Jurkat cells (human, UniProt Q08722 19-323).
T7 construct: whole, on cells; also called tumor cells
Description: FACS on Jurkat cells, PE-labeled anti-human Fc secondary antibody; MFI(Mean) against Con(nM).

T2 sequence (Q9NZQ7 19-290): as the sequence (Q9NZQ7 19-290 limits assumed) above

B1: 47-R2-18 (antibody, human IgG1, kappa, V domains shown)
VH: QVQLQESGPGLVKPSETLSLTCTVSGGSLDNYYWSWIRQPPGKGLEWIGYIYYSGNTNYNPSLKSRVTISVDTSKNQFSLKLSSVTAADTAVYYCARGGRFLERYWGQGTLVTVSS
VL: EIVLTQSPSSVSASVGDRITITCRASQGIGSWLAWYQQKPGKAPSLLIYAASSLQSGVPSRFSGSGSGTDFTLTISSLQTEDVAVYYCQQYFSTPYTFGQGTKVDIKR
notes: Anti-CD47 monoclonal antibody, L12-6-VH with light chain R2-18
By Kd is commonly meant the free concentration of one partner at which half of the binding sites on the other are occupied at equilibrium, for simple one-to-one binding. The low end stands for higher affinity, the high end for lower affinity. Consider B1, for which the Kd with CD47-His antigen [1] worked out at 0.312 nM.

B2: BsAb-36 (bispecific antibody, human IgG1, kappa)
heavy 1: not shown
heavy 2: not shown
light: EIVLTQSPSSLSASVGDRVTITCLASQTIGTWLAWYQQKPGKSPQLLIYAASTLQSGVPSRFSGSGSGTDFTLTISSLQPEDVATYYCQQYYSTPRTFGQGTKVEIKRTVAAPSVFIFPPSDEQLKSGTASVVCLLNNFYPREAKVQWKVDNALQSGNSQESVTEQDSKDSTYSLSSTLTLSKADYEKHKVYACEVTHQGLSSPVTKSFNRGEC
notes: Knob-into-hole IgG1-like bispecific with common light chain; first heavy chain is the anti-PD-L1 arm, second the anti-CD47 arm; also called anti-PD-L1/CD47 bispecific antibody BsAb-36
A word on the EC50 (read off the curve): it is the concentration at which the effect is half-maximal. A higher EC50 (read off the curve) goes with lower potency in that assay. Consider B2, for which the “EC50 (read off the curve)” value in [2] is roughly 0.7 nM. Also, the figures for the Kd with CD47-His antigen [3], with CD47-His antigen [4] and with PD-L1-His antigen [5] were 4.49 nM, 28 nM and 0.352 nM, respectively. The “EC50 (luciferase reporter, PD-1/PD-L1 blockade MOA assay; blocked partner: PD-1 on Jurkat-PD1 cells)” value in [6] was 0.208 mg/L.

B3: BsAb-71-N297A (bispecific antibody, human IgG1, kappa, N297A)
heavy 1: EVQLVESGGGLVQPGGSLRLSCAASGFTFSDSWIHWVRQAPGKGLEWVGWISPYGGSTYYADSYRSRFTISADTSKNTAYLQMNSLRAEDTAVYYCARRHWPGGFDYWGQGTLVTVSSASTKGPSVFPLAPSSKSTSGGTAALGCLVKDYFPEPVTVSWNSGALTSGVHTFPAVLQSSGLYSLSSVVTVPSSSLGTQTYICNVNHKPSNTKVDKKVEPKSCDKTHTCPPCPAPELLGGPSVFLFPPKPKDTLMISRTPEVTCVVVDVSHEDPEVKFNWYVDGVEVHNAKTKPREEQYASTYRVVSVLTVLHQDWLNGKEYKCKVSNKALPAPIEKTISKAKGQPREPQVYTLPPCRDELTKNQVSLWCLVKGFYPSDIAVEWESNGQPENNYKTTPPVLDSDGSFFLYSKLTVDKSRWQQGNVFSCSVMHEALHNHYTQKSLSLSPGK
heavy 2: not shown
light: EIVLTQSPSSLSASVGDRVTITCLASQTIGTWLAWYQQKPGKSPQLLIYAASTLQSGVPSRFSGSGSGTDFTLTISSLQPEDVATYYCQQYYSTPRTFGQGTKVEIKRTVAAPSVFIFPPSDEQLKSGTASVVCLLNNFYPREAKVQWKVDNALQSGNSQESVTEQDSKDSTYSLSSTLTLSKADYEKHKVYACEVTHQGLSSPVTKSFNRGEC
notes: BsAb-71 with the N297A mutation in the Fc region; also called anti-PD-L1/CD47 bispecific antibody BsAb-71-N297A
As for B3, in test [7], the “EC50 (luciferase reporter, PD-1/PD-L1 blockade MOA assay; blocked partner: PD-1 on Jurkat-PD1 cells)” value was determined as 0.164 mg/L. Also, the “EC50 (read off the curve)” value in [8] was roughly 0.5 nM.

B4: BsAb-46 (bispecific antibody, human IgG1, kappa)
heavy 1: not shown
heavy 2: not shown
light: EIVLTQSPSSLSASVGDRVTITCLASQTIGTWLAWYQQKPGKSPQLLIYAASTLQSGVPSRFSGSGSGTDFTLTISSLQPEDVATYYCQQYYSTPRTFGQGTKVEIKRTVAAPSVFIFPPSDEQLKSGTASVVCLLNNFYPREAKVQWKVDNALQSGNSQESVTEQDSKDSTYSLSSTLTLSKADYEKHKVYACEVTHQGLSSPVTKSFNRGEC
notes: Knob-into-hole IgG1-like bispecific with common light chain; first heavy chain is the anti-PD-L1 arm, second the anti-CD47 arm; also called anti-PD-L1/CD47 bispecific antibody BsAb-46
As to B4, the “EC50 (read off the curve)” value in test [2] was roughly 0.8 nM. The Kd in the test with CD47-His antigen [3] turned out to be 3.95 nM; with CD47-His antigen [4], 29.1 nM; with PD-L1-His antigen [5], 0.371 nM. Besides, the “EC50 (luciferase reporter, PD-1/PD-L1 blockade MOA assay; blocked partner: PD-1 on Jurkat-PD1 cells)” value in test [6] worked out at 0.143 mg/L.

B5: BsAb-47 (bispecific antibody, human IgG1, kappa)
heavy 1: not shown
heavy 2: not shown
light: EIVLTQSPSSLSASVGDRVTITCLASQTIGTWLAWYQQKPGKSPQLLIYAASTLQSGVPSRFSGSGSGTDFTLTISSLQPEDVATYYCQQYYSTPRTFGQGTKVEIKRTVAAPSVFIFPPSDEQLKSGTASVVCLLNNFYPREAKVQWKVDNALQSGNSQESVTEQDSKDSTYSLSSTLTLSKADYEKHKVYACEVTHQGLSSPVTKSFNRGEC
notes: Knob-into-hole IgG1-like bispecific with common light chain; first heavy chain is the anti-PD-L1 arm, second the anti-CD47 arm; also called anti-PD-L1/CD47 bispecific antibody BsAb-47
As for B5, the “EC50 (read off the curve)” value in [2] was roughly 0.8 nM; in test [9] it was roughly 4 nM. Also, the Kd came to 4.77 nM in the test with CD47-His antigen [3], 28.4 nM with CD47-His antigen [4] and 0.223 nM in the test with PD-L1-His antigen [5]. In test [6], the “EC50 (luciferase reporter, PD-1/PD-L1 blockade MOA assay; blocked partner: PD-1 on Jurkat-PD1 cells)” value came to 0.295 mg/L.

B6: L1-R2-4-71 (antibody, human IgG1, kappa, V domains shown)
VH: EVQLVESGGGLVQPGGSLRLSCAASGFTFSDSWIHWVRQAPGKGLEWVGWISPYGGSTYYADSYRSRFTISADTSKNTAYLQMNSLRAEDTAVYYCARRHWPGGFDYWGQGTLVTVSS
VL: EIVLTQSPSSLSASVGDRVTITCLASQTIGTWLAWYQQKPGKSPQLLIYAASTLQSGVPSRFSGSGSGTDFTLTISSLQPEDVATYYCQQYYSTPRTFGQGTKVEIKR
notes: also called parental anti-PD-L1 antibody L1-R2-4-71
As to B6, the “EC50 (luciferase reporter, PD-1/PD-L1 blockade MOA assay; blocked partner: PD-1 on Jurkat-PD1 cells)” value is 0.087 mg/L in test [7], 0.382 mg/L in test [10] and 0.292 mg/L in test [6]. Besides, the “EC50 (read off the curve)” value was roughly 0.6 nM in test [2], roughly 2 mg/L in [10] and roughly 0.2 nM in test [8]. For the same molecule, the Kd in the test with PD-L1-His antigen [11] was 0.282 nM.

B7: 47-R2-89 (antibody, human IgG1, kappa, V domains shown)
VH: QVQLQESGPGLVKPSETLSLTCTVSGGSLDNYYWSWIRQPPGKGLEWIGYIYYSGNTNYNPSLKSRVTISVDTSKNQFSLKLSSVTAADTAVYYCARGGRFLERYWGQGTLVTVSS
VL: DIQMTQSPSSLSASVGDRVTITCLASQTIGTWLAWYQQKPGKSPQLLIYAASSLQSGVPSRFSGSGSGTDFTLTISSLQPEDVATYYCQQYYSTPYTFGQGTKVDIKR
notes: Anti-CD47 monoclonal antibody, L12-6-VH with light chain R2-89
The molecule B7 returned a Kd in the test with CD47-His antigen [1] of 0.361 nM.

B8: 47-R2-4 (antibody, human IgG1, kappa, V domains shown)
VH: QVQLQESGPGLVKPSETLSLTCTVSGGSLDNYYWSWIRQPPGKGLEWIGYIYYSGNTNYNPSLKSRVTISVDTSKNQFSLKLSSVTAADTAVYYCARGGRFLERYWGQGTLVTVSS
VL: EIVLTQSPSSLSASVGDRVTITCLASQTIGTWLAWYQQKPGKSPQLLIYAASTLQSGVPSRFSGSGSGTDFTLTISSLQPEDVATYYCQQYYSTPRTFGQGTKVEIKR
notes: Anti-CD47 monoclonal antibody, L12-6-VH with light chain R2-4; also called parental anti-CD47 antibody 47-R2-4
Regarding B8, the dissociation constant (Kd) in the test with CD47-His antigen [12] is 3.29 nM. The “EC50 (read off the curve)” value was roughly 0.9 nM in test [13], roughly 3 nM in test [14], roughly 0.7 nM in [15] and roughly 1 nM in test [9]. In addition, the binding result in test [2] was “no binding (tested: 10 nM)”.
